Test results from patent US20140294844A1.

Target: huPrP23-231 (human) (UniProt P04156)

Q: With ICSM-35 (antibody) as the substance, how does the IC50 read?
A: Its IC50 is 10.4 nM.

Q: What about the Kd of the same substance?
A: Its Kd is 10 nM.

Q: And the Ki?
A: Its Ki is 20 nM.
